Measured values: patent US20250152742A1, “COMPOSITIONS AND METHODS FOR NEUROLOGICAL DISEASES” (Trames Bio, Inc., priority 2022, published 2025)
Positions count from the first letter of the chain named. Numbers in names are those of the source.

System: engineered chimeric receptor SEQ ID NO: 33 and its mutants (human α7-nAChR ligand binding domain / human GlyRα1 ion pore domain) in Lenti-X 293T cells
Assay: YFP fluorescence quenching anion reporter plate reader assay (percent quench, EC50)
Assay type: cell-based
Conditions: for YFP fluorescence quenching using CNL001 (percent quench): receptor named in row; for YFP fluorescence quenching using Facinicline, 30 nM fac: ligand Facinicline 30 nM; for YFP fluorescence quenching using Facinicline, 300 nM fac: ligand Facinicline 300 nM; for YFP fluorescence quenching using Facinicline, 10 uM fac: ligand Facinicline 10 uM; for YFP fluorescence quenching using Facinicline, 30 uM fac: ligand Facinicline 30 uM; for YFP fluorescence quenching using TC-6987, 1 uM tc6987: ligand TC-6987 1 uM; for YFP fluorescence quenching using TC-6987, 3 uM tc6987: ligand TC-6987 3 uM; for YFP fluorescence quenching using TC-6987, 5 uM tc6987: ligand TC-6987 5 uM; for YFP fluorescence quenching using TC-6987, 10 uM tc6987: ligand TC-6987 10 uM; for YFP fluorescence quenching using TC-6987, 30 uM tc6987: ligand TC-6987 30 uM; for YFP fluorescence quenching using TC-6987, 50 uM tc6987: ligand TC-6987 50 uM; for YFP fluorescence quenching using TC-6987, 100 uM tc6987: ligand TC-6987 100 uM; for YFP fluorescence quenching using TC-6987, 300 uM tc6987: ligand TC-6987 300 uM; for YFP fluorescence quenching using TC-6987, 500 uM tc6987: ligand TC-6987 500 uM; for YFP fluorescence quenching using Varenicline, 3 nM var: ligand Varenicline 3 nM; for YFP fluorescence quenching using Varenicline, 30 nM var: ligand Varenicline 30 nM; for YFP fluorescence quenching using Varenicline, 300 nM var: ligand Varenicline 300 nM; for YFP fluorescence quenching using Varenicline, 500 nM var: ligand Varenicline 500 nM; for YFP fluorescence quenching using Varenicline, 1 uM var: ligand Varenicline 1 uM
Summary of the method: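 Lenti-X 293T cells co-expressing an anion-quenchable YFP were transiently transfected with receptor DNA, then ligand was added in NaI-substituted buffer (pH 7.2) after 30 min at 37 °C. Fluorescence was read about 2 min; percent quench = mean of last 10 s over 15 s pre-ligand baseline.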

[1] = 1 nM CNL001, first column so headed
[2] = 1 nM CNL001, second column so headed
[3] = 1 nM brd (TC-5619/Bradanicline)
[4] = 3 nM brd (TC-5619/Bradanicline)
[5] = 10 nM CNL001, first column so headed
[6] = 10 nM CNL001, second column so headed
[7] = 10 nM brd (TC-5619/Bradanicline)
[8] = 30 nM brd (TC-5619/Bradanicline)
[9] = 50 nM CNL001, first column so headed
[10] = 50 nM CNL001, second column so headed
[11] = 100 nM CNL001, first column so headed
[12] = 100 nM CNL001, second column so headed
[13] = 100 nM brd (TC-5619/Bradanicline)
[14] = 300 nM brd (TC-5619/Bradanicline)
[15] = 1 uM CNL001, first column so headed
[16] = 1 uM CNL001, second column so headed
[17] = 1 uM brd (TC-5619/Bradanicline)

B1: CODA335: engineered receptor: L131T in SEQ ID NO: 33 (protein)
chain: MRCSPGGVWLALAASLLHVSLQGEFQRKLYKELVKNYNPLERPVANDSQPLTVYFSLSLLQIMDVDEKNQVLTTNIWLQMSWTDHYLQWNVSEYPGVKTVRFPDGQIWKPDILLYNSADERFDATFHTNVTVNSSGHCQYLPPGIFKSSCPMDLKNFPMDVQTCKLKFGSWSYGGWSLDLQMQEADISGYIPNGEWDLVGIPGKRSERFYECCKEPYPDVTFTVTMRRRMGYYLIQMYIPSLLIVILSWISFWINMDAAPARVGLGITTVLTMTTQSSGSRASLPKVSYVKAIDIWMAVCLLFVFSALLEYAAVNFVSRQHKELLRFRRKRRHHKSPMLNLFQEDEAGEGRFNFSAYGMGPACLQAKDGISVKGANNSNTTNPPPAPSKSPEEMRKLFIQRAKKIDKISRIGFPMAFLIFNMFYWIIYKIVRREDVHNQ
modifications: synthetic sequence of chimeric LGIC
[1]
  YFP fluorescence quenching using CNL001 (percent quench): −9.942%
[2]
  YFP fluorescence quenching using CNL001 (percent quench): −0.475%
[3]
  YFP fluorescence quenching using TC-5619/Bradanicline (percent quench): −2.39%
[4]
  YFP fluorescence quenching using TC-5619/Bradanicline (percent quench): −4.08%
[5]
  YFP fluorescence quenching using CNL001 (percent quench): 17.889%
[6]
  YFP fluorescence quenching using CNL001 (percent quench): 38.46%
[7]
  YFP fluorescence quenching using TC-5619/Bradanicline (percent quench): −3.3%
30 nM TC-6683
  YFP fluorescence quenching using TC-6683 (percent quench): −13.84%
[8]
  YFP fluorescence quenching using TC-5619/Bradanicline (percent quench): −9.69%
[9]
  YFP fluorescence quenching using CNL001 (percent quench): 61.741%
[10]
  YFP fluorescence quenching using CNL001 (percent quench): 69.159%
50 nM abt (ABT-126)
  YFP fluorescence quenching using ABT-126 (percent quench): −18%
[11]
  YFP fluorescence quenching using CNL001 (percent quench): 73.635%
[12]
  YFP fluorescence quenching using CNL001 (percent quench): 76.092%
100 nM CNL002
  YFP fluorescence quenching (percent quench): −14.53%
100 nM abt (ABT-126)
  YFP fluorescence quenching using ABT-126 (percent quench): −16.39%
100 nM azd0328
  YFP fluorescence quenching using AZD-0328 (percent quench): 11.33%
[13]
  YFP fluorescence quenching using TC-5619/Bradanicline (percent quench): −1.05%
300 nM TC-6683
  YFP fluorescence quenching using TC-6683 (percent quench): −20.66%
300 nM abt (ABT-126)
  YFP fluorescence quenching using ABT-126 (percent quench): −15.05%
300 nM azd0328
  YFP fluorescence quenching using AZD-0328 (percent quench): 44.15%
[14]
  YFP fluorescence quenching using TC-5619/Bradanicline (percent quench): 10.53%
[15]
  YFP fluorescence quenching using CNL001 (percent quench): 80.633%
[16]
  YFP fluorescence quenching using CNL001 (percent quench): 79.637%
1 uM CNL002
  YFP fluorescence quenching (percent quench): 6.45%
1 uM abt (ABT-126)
  YFP fluorescence quenching using ABT-126 (percent quench): −5.56%
[17]
  YFP fluorescence quenching using TC-5619/Bradanicline (percent quench): 34.72%
3 uM TC-6683
  YFP fluorescence quenching using TC-6683 (percent quench): −17.86%
10 uM ach (acetylcholine)
  YFP fluorescence quenching (percent quench): −9.13%
30 uM CNL002
  YFP fluorescence quenching (percent quench): 57.43%
30 uM TC-6683
  YFP fluorescence quenching using TC-6683 (percent quench): −18.91%
30 uM azd0328
  YFP fluorescence quenching using AZD-0328 (percent quench): 80.96%
100 uM TC-6683
  YFP fluorescence quenching using TC-6683 (percent quench): −16.88%
100 uM ach (acetylcholine)
  YFP fluorescence quenching (percent quench): −9.29%
1 mM ach (acetylcholine)
  YFP fluorescence quenching (percent quench): 0.57%
3 mM ach (acetylcholine)
  YFP fluorescence quenching (percent quench): 35.37%
  YFP fluorescence quenching using Facinicline, 30 nM fac: 1.24
  YFP fluorescence quenching using Facinicline, 300 nM fac: 46.92
  YFP fluorescence quenching using Facinicline, 10 uM fac: 79.06
  YFP fluorescence quenching using Facinicline, 30 uM fac: 81.06
  YFP fluorescence quenching using TC-6987, 1 uM tc6987: −0.14
  YFP fluorescence quenching using TC-6987, 3 uM tc6987: −8.32
  YFP fluorescence quenching using TC-6987, 5 uM tc6987: −2.13
  YFP fluorescence quenching using TC-6987, 10 uM tc6987: 0.13
  YFP fluorescence quenching using TC-6987, 30 uM tc6987: −6.86
  YFP fluorescence quenching using TC-6987, 50 uM tc6987: −9.5
  YFP fluorescence quenching using TC-6987, 100 uM tc6987: −10.98
  YFP fluorescence quenching using TC-6987, 300 uM tc6987: −12.16
  YFP fluorescence quenching using TC-6987, 500 uM tc6987: −2.41
First column
  YFP fluorescence quenching using Varenicline, 3 nM var: 0.398
  YFP fluorescence quenching using Varenicline, 30 nM var: 5.31
  YFP fluorescence quenching using Varenicline, 300 nM var: 4.327
  YFP fluorescence quenching using Varenicline, 500 nM var: 1.835
  YFP fluorescence quenching using Varenicline, 1 uM var: 9.471
Second column
  YFP fluorescence quenching using Varenicline, 3 nM var: 3.947
  YFP fluorescence quenching using Varenicline, 30 nM var: 7.666
  YFP fluorescence quenching using Varenicline, 300 nM var: 3.275
  YFP fluorescence quenching using Varenicline, 500 nM var: 4.863
  YFP fluorescence quenching using Varenicline, 1 uM var: 7.505

B2: CODA339: engineered receptor: L131D in SEQ ID NO: 33 (protein)
chain: B1 chain with T131D
modifications: synthetic sequence of chimeric LGIC
[1]
  YFP fluorescence quenching using CNL001 (percent quench): 73.711%
[2]
  YFP fluorescence quenching using CNL001 (percent quench): 76.44%
[3]
  YFP fluorescence quenching using TC-5619/Bradanicline (percent quench): 4.12%
[4]
  YFP fluorescence quenching using TC-5619/Bradanicline (percent quench): 19.15%
[5]
  YFP fluorescence quenching using CNL001 (percent quench): 77.049%
[6]
  YFP fluorescence quenching using CNL001 (percent quench): 77.76%
[7]
  YFP fluorescence quenching using TC-5619/Bradanicline (percent quench): 68.98%
30 nM TC-6683
  YFP fluorescence quenching using TC-6683 (percent quench): −18.32%
[8]
  YFP fluorescence quenching using TC-5619/Bradanicline (percent quench): 77.29%
[9]
  YFP fluorescence quenching using CNL001 (percent quench): 77.882%
[10]
  YFP fluorescence quenching using CNL001 (percent quench): 78.708%
50 nM abt (ABT-126)
  YFP fluorescence quenching using ABT-126 (percent quench): −16.65%
[11]
  YFP fluorescence quenching using CNL001 (percent quench): 79.567%
[12]
  YFP fluorescence quenching using CNL001 (percent quench): 79.273%
100 nM CNL002
  YFP fluorescence quenching (percent quench): 12.83%
100 nM abt (ABT-126)
  YFP fluorescence quenching using ABT-126 (percent quench): −12.3%
100 nM azd0328
  YFP fluorescence quenching using AZD-0328 (percent quench): 62.87%
[13]
  YFP fluorescence quenching using TC-5619/Bradanicline (percent quench): 81.41%
300 nM TC-6683
  YFP fluorescence quenching using TC-6683 (percent quench): −17.25%
300 nM abt (ABT-126)
  YFP fluorescence quenching using ABT-126 (percent quench): 18.5%
300 nM azd0328
  YFP fluorescence quenching using AZD-0328 (percent quench): 77.03%
[14]
  YFP fluorescence quenching using TC-5619/Bradanicline (percent quench): 75.79%
[15]
  YFP fluorescence quenching using CNL001 (percent quench): 79.992%
[16]
  YFP fluorescence quenching using CNL001 (percent quench): 79.927%
1 uM CNL002
  YFP fluorescence quenching (percent quench): 77.73%
1 uM abt (ABT-126)
  YFP fluorescence quenching using ABT-126 (percent quench): 59.09%
[17]
  YFP fluorescence quenching using TC-5619/Bradanicline (percent quench): 82.26%
3 uM TC-6683
  YFP fluorescence quenching using TC-6683 (percent quench): −10%
10 uM ach (acetylcholine)
  YFP fluorescence quenching (percent quench): 4.56%
30 uM CNL002
  YFP fluorescence quenching (percent quench): 80.58%
30 uM TC-6683
  YFP fluorescence quenching using TC-6683 (percent quench): −8.51%
30 uM azd0328
  YFP fluorescence quenching using AZD-0328 (percent quench): 78.63%
100 uM TC-6683
  YFP fluorescence quenching using TC-6683 (percent quench): −9.77%
100 uM ach (acetylcholine)
  YFP fluorescence quenching (percent quench): 10.19%
1 mM ach (acetylcholine)
  YFP fluorescence quenching (percent quench): 77.34%
3 mM ach (acetylcholine)
  YFP fluorescence quenching (percent quench): 77.79%
  YFP fluorescence quenching using Facinicline, 30 nM fac: 12.67
  YFP fluorescence quenching using Facinicline, 300 nM fac: 80.4
  YFP fluorescence quenching using Facinicline, 10 uM fac: 82.18
  YFP fluorescence quenching using Facinicline, 30 uM fac: 82.14
  YFP fluorescence quenching using TC-6987, 1 uM tc6987: 50
  YFP fluorescence quenching using TC-6987, 3 uM tc6987: 80.39
  YFP fluorescence quenching using TC-6987, 5 uM tc6987: 79.93
  YFP fluorescence quenching using TC-6987, 10 uM tc6987: 80.99
  YFP fluorescence quenching using TC-6987, 30 uM tc6987: 83.11
  YFP fluorescence quenching using TC-6987, 50 uM tc6987: 83.18
  YFP fluorescence quenching using TC-6987, 100 uM tc6987: 82.16
  YFP fluorescence quenching using TC-6987, 300 uM tc6987: 64.58
  YFP fluorescence quenching using TC-6987, 500 uM tc6987: 76.77
First column
  YFP fluorescence quenching using Varenicline, 3 nM var: −0.902
  YFP fluorescence quenching using Varenicline, 30 nM var: −6.009
  YFP fluorescence quenching using Varenicline, 300 nM var: 49.328
  YFP fluorescence quenching using Varenicline, 500 nM var: 66.7
  YFP fluorescence quenching using Varenicline, 1 uM var: 70.85
Second column
  YFP fluorescence quenching using Varenicline, 3 nM var: −7.62
  YFP fluorescence quenching using Varenicline, 30 nM var: −3.447
  YFP fluorescence quenching using Varenicline, 300 nM var: 47.685
  YFP fluorescence quenching using Varenicline, 500 nM var: 64.798
  YFP fluorescence quenching using Varenicline, 1 uM var: 69.038
